# Target: Toxin B, native full-length (270 kDa) (Clostridium difficile) (UniProt P18177)
# Assay: filter
# Settings: 2NapdU at every N (replaces all dT)
# Sequence of UniProt P18177 (P18177 2-2366): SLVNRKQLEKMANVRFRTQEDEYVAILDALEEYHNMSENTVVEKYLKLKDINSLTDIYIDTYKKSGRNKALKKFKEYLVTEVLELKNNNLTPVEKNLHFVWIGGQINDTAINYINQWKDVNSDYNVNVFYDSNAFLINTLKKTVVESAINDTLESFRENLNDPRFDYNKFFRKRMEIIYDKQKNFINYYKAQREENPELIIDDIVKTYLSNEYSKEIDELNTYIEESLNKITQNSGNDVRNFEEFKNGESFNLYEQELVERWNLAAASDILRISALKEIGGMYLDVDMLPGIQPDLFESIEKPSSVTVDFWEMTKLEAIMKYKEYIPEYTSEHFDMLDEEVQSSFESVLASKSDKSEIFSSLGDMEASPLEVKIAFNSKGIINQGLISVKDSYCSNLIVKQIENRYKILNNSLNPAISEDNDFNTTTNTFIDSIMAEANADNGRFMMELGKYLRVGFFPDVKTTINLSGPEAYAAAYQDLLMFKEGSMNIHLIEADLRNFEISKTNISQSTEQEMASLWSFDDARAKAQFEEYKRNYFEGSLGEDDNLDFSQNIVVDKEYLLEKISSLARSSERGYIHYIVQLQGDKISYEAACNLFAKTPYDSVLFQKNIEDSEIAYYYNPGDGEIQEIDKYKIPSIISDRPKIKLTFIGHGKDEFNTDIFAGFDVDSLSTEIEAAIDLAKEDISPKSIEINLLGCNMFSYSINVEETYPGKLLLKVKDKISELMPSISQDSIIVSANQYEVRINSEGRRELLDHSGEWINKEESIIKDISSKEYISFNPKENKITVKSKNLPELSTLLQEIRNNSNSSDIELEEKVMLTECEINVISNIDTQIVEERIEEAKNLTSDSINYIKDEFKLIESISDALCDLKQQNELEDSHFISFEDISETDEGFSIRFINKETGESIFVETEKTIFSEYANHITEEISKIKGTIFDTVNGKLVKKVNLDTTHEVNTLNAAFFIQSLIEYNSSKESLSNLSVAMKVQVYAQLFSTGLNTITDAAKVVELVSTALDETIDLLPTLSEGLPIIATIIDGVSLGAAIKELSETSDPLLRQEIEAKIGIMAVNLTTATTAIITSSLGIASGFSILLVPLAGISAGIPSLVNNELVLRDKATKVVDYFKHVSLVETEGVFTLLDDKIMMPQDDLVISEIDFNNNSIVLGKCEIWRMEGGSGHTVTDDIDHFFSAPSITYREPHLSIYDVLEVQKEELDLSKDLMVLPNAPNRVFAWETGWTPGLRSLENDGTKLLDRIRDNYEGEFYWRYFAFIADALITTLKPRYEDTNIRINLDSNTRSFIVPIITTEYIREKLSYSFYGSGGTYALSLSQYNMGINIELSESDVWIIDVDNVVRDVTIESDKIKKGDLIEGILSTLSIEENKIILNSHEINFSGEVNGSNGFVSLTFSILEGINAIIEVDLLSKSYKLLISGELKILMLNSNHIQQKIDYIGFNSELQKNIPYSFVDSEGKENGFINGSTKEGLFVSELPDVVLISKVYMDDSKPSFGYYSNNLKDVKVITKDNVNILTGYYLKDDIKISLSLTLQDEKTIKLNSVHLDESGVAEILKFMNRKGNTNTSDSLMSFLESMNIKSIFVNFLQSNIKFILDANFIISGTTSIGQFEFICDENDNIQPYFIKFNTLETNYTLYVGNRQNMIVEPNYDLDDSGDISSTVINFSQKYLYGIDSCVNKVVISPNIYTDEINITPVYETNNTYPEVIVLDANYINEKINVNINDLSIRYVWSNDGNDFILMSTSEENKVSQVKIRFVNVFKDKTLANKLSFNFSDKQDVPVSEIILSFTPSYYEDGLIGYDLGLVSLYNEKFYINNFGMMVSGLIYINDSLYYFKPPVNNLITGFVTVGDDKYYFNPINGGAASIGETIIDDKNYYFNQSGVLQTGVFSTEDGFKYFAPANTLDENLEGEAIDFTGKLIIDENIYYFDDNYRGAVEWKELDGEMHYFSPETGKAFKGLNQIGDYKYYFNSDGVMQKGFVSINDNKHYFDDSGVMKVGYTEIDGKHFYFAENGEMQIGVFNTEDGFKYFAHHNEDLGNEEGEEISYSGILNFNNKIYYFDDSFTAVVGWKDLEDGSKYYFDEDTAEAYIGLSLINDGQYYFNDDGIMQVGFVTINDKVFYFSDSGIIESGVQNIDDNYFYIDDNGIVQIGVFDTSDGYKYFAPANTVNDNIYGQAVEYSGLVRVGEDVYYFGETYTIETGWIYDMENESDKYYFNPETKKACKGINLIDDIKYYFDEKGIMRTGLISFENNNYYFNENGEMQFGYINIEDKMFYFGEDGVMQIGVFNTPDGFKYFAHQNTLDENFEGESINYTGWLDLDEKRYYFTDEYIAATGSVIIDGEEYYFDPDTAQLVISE
sequence,measurement,value
CNNNNNNACCGCNGCANGACNNNAGCGGCAGNCGNGNGNG [5566-77],Kd,0.23 nM
